The text below walks through data of PMC6675122, “N-terminal β-strand underpins biochemical specialization of an ATG8 isoform” (PLoS Biology, 2019).

“Also recorded” adds a separate entry of the source.

The test system of the assay is ATG8. Briefly: in planta Co-IP, Vps4 with ATG8 (ATG8-2.2, ATG8-4, ATG8-4-S3). The assay is classed as binding, Solanum tuberosum.

B1: Vps4: potato vacuolar protein sorting 4; known as SKD1 in A. thaliana; ESCRT function (protein)
chain: MYSNFKEQAIEFVRQAVQEDNGGNYAKAFPLYMNALEYFKTHLKYEKNPKIKEAITQKFTEYLRRAEEIRAVLDEGGSGPGPNGGDAAVMAKPKTKPKDGEDGEDPEQSKLRAGLNSAIVREKPNVKWNDVAGLESAKQALQEAVILPVKFPQFFTGKRRPWRAFLLYGPPGTGKSYLAKAVATEAESTFFSVSSSDLVSKWMGESEKLVSNLFQMARESAPSIIFVDEIDSLCGQRGEGNESEASRRIKTELLVQMQGVGHNDDKVLVLAATNTPYALDQAIRRRFDKRIYIPLPDLKARQHMFKVHLGDTPHNLSESDFEDLARKTEGFSGSDVSVCVKDVLFEPVRKTQDAVFFTQTSNGTWIPCGPKQQGAVQTTMQELDAKGLASQIIPPPITKTDFDKVLARQRPTVSKSDLEVHDRFTKEFGEEG
Take B1: the “dependence of Vps4 binding on the ATG8 first β-strand” value (Co-IP, ATG8-2.2, ATG8-4 and ATG8-4-S3) is “the role of the N-terminal β-strand region in conferring binding to AIM-containing proteins was confirmed; also recorded: The ATG8 region surrounding the first β-strand is responsible for discriminatory binding to potato Vps4”. The “interaction of Vps4 with ATG8” value (Vps4:3xMyc co-expressed with GFP:ATG8 in N. benthamiana, anti-GFP IP, immunoblot) was “direct interaction between Vps4 and ATG8”.
